Columns and labels:
[1] = MAO-N variants, (S)-enantiomer of PPY, ref [104]; cited from earlier work
[2] = Biotransformation of PPY by purified HDNO variants (GC-FID, chiral HPLC); format: biochemical; conditions: for rate / activity increase towards PPY oxidation versus HDNO D2: biotransformation measurements
Protocol: (§1) Chiral normal phase HPLC was performed on an Agilent HPLC system (G1379A degasser, G1312A binary pump, a G1367A well plate autosampler unit, a G1316A temperature-controlled column compartment and a G1315C diode array detector) (Agilent Technologies Inc., Santa Clara, CA) equipped with a CHIRALCEL OD-H (250 mm length, 4.6 mm diameter, 5 μm particle size) analytical column (Daicel Corp., Osaka, Japan). The typical injection volume was 10 μL and chromatograms were monitored at 265 nm. Gas chromatographic (GC) analysis was performed on an Agilent 6850 GC (Agilent Technologies Inc., Santa Clara, CA) with a flame ionization detector and autosampler equipped with a HP-1 column of length 30 m, 0.32 mm inner diameter and 0.25 μm film thickness (Agilent Technologies Inc., Santa Clara, CA).
A typical 500 μL reaction mixture in a 2 mL tube contained 10 mM amine, 0.05 to 1 mg mL^−1 of purified HDNO variant in pH 8 100 mM NaPi buffer. Reactions were incubated at 30° C. with 250 r.p.m shaking for different reaction times, after which they were quenched by the addition of 50 μL of 10 M NaOH and extracted twice with 500 μL tert-butyl methyl ether (HPLC grade, Merck Life Science UK Limited, Gillingham). The organic fractions were combined and dried over anhydrous MgSO4 and analysed by GC-FID (conversions) or HPLC (enantiomeric ratios) on a chiral stationary phase (see Chromatography section for details). Turnover frequencies (TOF, min^−1) were calculated as the moles of product formed/moles of enzyme min^−1 based on conversions obtained by GC-FID analysis (see Chromatography method). The same response factor was considered for both substrate and product.

[3] = Biotransformation of methylbenzylamine by purified HDNO variants; format: biochemical
Protocol: as §1
(§2) A typical 500 μL reaction mixture in a 2 mL tube contained 10 mM amine, 0.05 to 1 mg mL^−1 of purified HDNO variant in pH 8 100 mM NaPi buffer. […] The organic fractions were combined and dried over anhydrous MgSO4 and analysed by GC-FID (conversions) or HPLC (enantiomeric ratios) on a chiral stationary phase (see Chromatography section for details). Turnover frequencies (TOF, min^−1) were calculated as the moles of product formed/moles of enzyme min^−1 based on conversions obtained by GC-FID analysis (see Chromatography method). […]

[4] = Thermal stability: residual activity after incubation at 45° C. or 50° C. (GC); format: physicochemical; conditions: 60 min
Protocol: A subset of mutants was selected and inserted into the HDNO D3 and D6 variants by site directed mutagenesis either alone or in pairs to also check for interactions that would further stabilise the enzyme. Namely, D3-K208E, D6-K208E, D6-R207E, D6-K282E, D6-K428E and D6-K208E/K282E mutant proteins were expressed and purified (as described below) and incubated at elevated temperatures (45° C. or 50° C. for 1 h for D6 variants) using a constant temperature water bath incubator. Aliquots were taken every 15 min and activities were measured by biotransformation and gas chromatography (as described below). The % residual activity corresponds to the ratio between the activity observed after incubation at each specified time over the activity of the enzyme without any thermal treatment.
as §2

[5] = Kinetic parameters by HRP-ABTS assay; format: biochemical; conditions: oxidation of 2-phenylpyrrolidine, 30° C., pH 8
Protocol: Kinetic parameters of different HDNO variants were determined using the ABTS-HRP assay. Samples of 20 μL of substrate at different concentrations in DMSO (0.05 mM-10 mM, 10% DMSO final concentration) was diluted in 130 μL of reacting solution which contained 0.2 mg ml^−1 HRP (IV, Sigma) and 0.4 mg ml^−1 ABTS in 100 mM pH 8 NaPi buffer. The assay was started by adding 50 μL purified enzyme (typically 0.1-2 mg ml^−1 concentration). Production of the reduced ABTS was measured using a Tecan infinite M200 microplate reader (Tecan Group Limited, Mannedorf, Switzerland) at 420 nm (E=36 mM^−1 cm^−1) and 30° C. for 10 min. Measurements were made in triplicate and a 1:1 ratio for the oxidation of substrate to the production of hydrogen peroxide was assumed. Rate was plotted against substrate concentration and Vmax and KM values extracted using non-linear regression analysis with a fit to the Michaelis-Menten equation using Prism software (GraphPad Software, San Diego, CA). Protein concentrations for kinetic parameters were determined using the Bradford assay following supplier's instructions using bovine serum albumin (BSA) standards for calibration (Merck Life Science UK Limited, Gillingham).

Molecule	reported kcat [1] [s⁻¹]	Km [5] [µM]	kcat [5] [s⁻¹]	other results
N336S: evolved monoamine oxidase (MAO-N) variant N336S (protein, UniProt P46882 1-495, looked up, variant N336S) Monoamine oxidase N: MTSRDGYQWTPETGLTQGVPSLGVISPPTNIEDTDKDGPWDVIVIGGGYCGLTATRDLTVAGFKTLLLEARDRIGGRSWSSNIDGYPYEMGGTWVHWHQSHVWREITRYKMHNALSPSFNFSRGVNHFQLRTNPTTSTYMTHEAEDELLRSALHKFTNVDGTNGRTVLPFPHDMFYVPEFRKYDEMSYSERIDQIRDELSLNERSSLEAFILLCSGGTLENSSFGEFLHWWAMSGYTYQGCMDCLISYKFKDGQSAFARRFWEEAAGTGRLGYVFGCPVRSVVNERDAARVTARDGREFAAKRLVCTIPLNVLSTIQFSPALSTERISAMQAGHVSMCTKVHAEVDNKDMRSWTGIAYPFNKLCYAIGDGTTPAGNTHLVCFGTDANHIQPDEDVRETLKAVGQLAPGTFGVKRLVFHNWVKDEFAKGAWFFSRPGMVSECLQGLREKHRGVVFANSDWALGWRSFIDGAIEEGTRAARVVLEELGTKREVKARL	2.50	–	–	–
N336S/1246M: evolved monoamine oxidase (MAO-N) variant (protein, UniProt P46882 1-495, looked up, variant N336S I246M) Monoamine oxidase N: MTSRDGYQWTPETGLTQGVPSLGVISPPTNIEDTDKDGPWDVIVIGGGYCGLTATRDLTVAGFKTLLLEARDRIGGRSWSSNIDGYPYEMGGTWVHWHQSHVWREITRYKMHNALSPSFNFSRGVNHFQLRTNPTTSTYMTHEAEDELLRSALHKFTNVDGTNGRTVLPFPHDMFYVPEFRKYDEMSYSERIDQIRDELSLNERSSLEAFILLCSGGTLENSSFGEFLHWWAMSGYTYQGCMDCLMSYKFKDGQSAFARRFWEEAAGTGRLGYVFGCPVRSVVNERDAARVTARDGREFAAKRLVCTIPLNVLSTIQFSPALSTERISAMQAGHVSMCTKVHAEVDNKDMRSWTGIAYPFNKLCYAIGDGTTPAGNTHLVCFGTDANHIQPDEDVRETLKAVGQLAPGTFGVKRLVFHNWVKDEFAKGAWFFSRPGMVSECLQGLREKHRGVVFANSDWALGWRSFIDGAIEEGTRAARVVLEELGTKREVKARL	2.13	–	–	–
D3: HDNO D2 plus N414H (E350L/E352D/N414H), SEQ ID NO: 4 (protein, HDNO D3) MVSSKLATPLSIQGEVIYPDDSGFDAIANIWDGRHLQRPSLIARCLSAGDVAKSVRYACDNGLEISVRSGGHNPNGYATNDGGIVLDLRLMNSIHIDTAGSRARIGGGVISGDLVKEAAKFGLAAVTGMHPKVGFCGLALNGGVGFLTPKYGLASDNILGATLVTATGDVIYCSDDERPELFWAVRGAGPNFGVVTEVEVQLYELPRKMLAGFITWAPSVSELAGLLTSLLDALNEMADHIYPSVFVGVDENRAPSVTVCVGHLGGLDIAERDIARLRGLGRTVSDSIAVRSYDEVVALNAEVGSFEDGMSNLWIDREIAMPNARFAEAIAGNLDKFVSEPASGGSVKLLIDGMPFGNPKRTPARHRDAMGVLALAEWSGAAPGSEKYPELARELDAALLRAGVTTSGFGLLNHNSEVTAEMVAEVYKPEVYSRLAAVKREYDPENRFRHNYNIDPEGS	–	490 ± 140	0.71 ± 0.05	rate / activity increase towards PPY oxidation versus HDNO D2 ([2]; listed as 6-HDNO D3): 1.7 fold; rate / activity increase towards PPY oxidation versus HDNO D2 ([2]; listed as HDNO D3): almost twofold increase; enantioselectivity of PPY oxidation ([2]; chiral HPLC): completely selective towards the oxidation of the (R)-enantiomer; activity to methylbenzylamine lower than in HDNO D6 [3]: about 20%; residual activity [4]: 62%
D2: 6-hydroxy-D-nicotine oxidase from Arthrobacter nicotinovorans with E350L/E352D, SEQ ID NO: 2 (protein, HDNO D2) MVSSKLATPLSIQGEVIYPDDSGFDAIANIWDGRHLQRPSLIARCLSAGDVAKSVRYACDNGLEISVRSGGHNPNGYATNDGGIVLDLRLMNSIHIDTAGSRARIGGGVISGDLVKEAAKFGLAAVTGMHPKVGFCGLALNGGVGFLTPKYGLASDNILGATLVTATGDVIYCSDDERPELFWAVRGAGPNFGVVTEVEVQLYELPRKMLAGFITWAPSVSELAGLLTSLLDALNEMADHIYPSVFVGVDENRAPSVTVCVGHLGGLDIAERDIARLRGLGRTVSDSIAVRSYDEVVALNAEVGSFEDGMSNLWIDREIAMPNARFAEAIAGNLDKFVSEPASGGSVKLLIDGMPFGNPKRTPARHRDAMGVLALAEWSGAAPGSEKYPELARELDAALLRAGVTTSGFGLLNNNSEVTAEMVAEVYKPEVYSRLAAVKREYDPENRFRHNYNIDPEGS	–	1060 ± 440	0.50 ± 0.06	–

Reference: US20240282401A1, “METHODS FOR ENZYME ENGINEERING” (The University of Manchester, priority 2021, published 2024)
